Molecular target: Xenopus FGF receptor-1 (Xenopus laevis) (UniProt P22182)
Test: cell-based or functional assay

UniProt P22182, sequence (P22182 21-812): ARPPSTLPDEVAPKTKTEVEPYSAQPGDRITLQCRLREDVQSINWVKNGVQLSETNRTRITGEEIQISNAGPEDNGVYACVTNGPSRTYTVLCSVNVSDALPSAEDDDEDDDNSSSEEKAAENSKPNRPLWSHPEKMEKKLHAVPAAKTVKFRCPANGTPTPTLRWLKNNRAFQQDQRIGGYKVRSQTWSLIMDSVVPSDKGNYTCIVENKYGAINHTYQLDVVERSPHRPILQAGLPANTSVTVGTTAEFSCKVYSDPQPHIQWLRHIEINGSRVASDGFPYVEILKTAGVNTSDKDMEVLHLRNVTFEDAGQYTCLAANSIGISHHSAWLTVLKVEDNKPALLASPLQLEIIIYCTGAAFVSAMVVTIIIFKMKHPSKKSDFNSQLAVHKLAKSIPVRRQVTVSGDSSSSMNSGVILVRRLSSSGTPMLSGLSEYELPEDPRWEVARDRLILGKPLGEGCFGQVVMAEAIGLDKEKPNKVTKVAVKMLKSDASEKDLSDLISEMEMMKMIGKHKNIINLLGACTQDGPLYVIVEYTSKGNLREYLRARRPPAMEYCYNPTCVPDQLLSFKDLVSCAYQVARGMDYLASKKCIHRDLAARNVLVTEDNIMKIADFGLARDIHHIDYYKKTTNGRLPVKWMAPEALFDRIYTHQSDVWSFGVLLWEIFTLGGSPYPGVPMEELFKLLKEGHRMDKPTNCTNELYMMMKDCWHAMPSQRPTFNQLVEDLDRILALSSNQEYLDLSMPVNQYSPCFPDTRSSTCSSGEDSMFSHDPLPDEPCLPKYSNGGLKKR

Row | Ca2+ release (efflux) of Xenopus oocytes co-injected with ligand and FGF receptor mRNAs [fold] | Substance
1 | 2 | FRL-2 protein (ligand)
2 | 3 | Xenopus bFGF (basic fibroblast growth factor), without a signal sequence (from UniProt P12226 1-155) (ligand)
